Legend:
[1] = target: CA-N21C A22C (CA spheres) (HIV-1); test: negative-stain EM of NuPODs mixed with CA assemblies
[2] = target: CA-A14C E45C (disulfide-crosslinked CA tubes; also assembled into cones with IP6) (HIV-1); test: as above
[3] = target: CA-N21C A22C (CA spheres) (HIV-1); test: co-sedimentation

Row | Substance | percent of NuPODs bound to CA spheres and CA tubes at the same time [1] | percent of NuPODs bound to CA spheres and CA tubes at the same time [2] | percent of NuPODs in the supernatant (with the CA spheres) [3] | fold preference for binding to spheres over tubes (NuPODs in excess) [1]
1 | Nup358^(RBD4-CycH, aa 2911–3225) (from UniProt P49792 2911-3224) (domain or fragment) | 20 to 50% | 20 to 50% | – | –
2 | MBP-Nup153^(CTD, aa 896–1475) (from UniProt P49790 896-1475) (domain or fragment) | – | – | 95% | 60 fold

Source: PMC10121901
